Laboratory results reported in article PMC7994712 (Nature Communications, 2021).
“Also recorded” adds a separate entry of the source. Read-outs that look alike come from different tables or passages of the source. Bridges are numbered along the chain shown (N, C = ends). Where no end group is shown, it is not given here.

Columns and labels:
SSTR2 = biological target: T1, SSTR2 (Homo sapiens, UniProt P30874); assay: Radio-ligand binding assay, SSTR2
T1 construct: host or cells: CHO-K1
Experimental: (§1) Graphical and tabular representation of the percentage inhibition of specific binding, as IC50 (nM) binding values for the analogues against the five SSTR1-SSTR5 is represented in Supplementary Fig. 1b and Supplementary Table 1. […] IC50 values were determined by a non-linear, least squares regression analysis using Prism 9 (GraphPad Software, USA), using the Dose-response inhibition (three-parameters) model. […]
(§2) (SSTR1-SSTR5), using a Radio-ligand Binding Assay (Supplementary Figure 1b). Cells were incubated in HEPES buffer pH 7.4 with the new analogues of Cortistatin at 10 different concentrations in a range […]
(§3) specifically bound (performed at Eurofins Panlabs, Inc.). The radioactivity obtained in the absence of SST14 is considered as total binding and that obtained in the presence of 1 µM of SST14 is considered as nonspecific binding. Specific binding was considered as the difference between total and nonspecific.
(§4) Biochemical assay results are presented as the percent inhibition of specific bindin g (% inhib ition) as a […]
(§5) part of each binding assay with the five (SSTR1 -SS T R5 ) . I C50 values were determined by a non-linear, least squares regression analysis using Prism 9 (GraphPad Software, USA), using the Dose -response inhibit ion (t hree-parameters) model.

[1] = Aqueous solubility (observed on sample preparation); assay type: physicochemical; settings: aqueous buffer solution; observation in words
Source text: For instance, it is well known that substitution of L-Trp to D-Trp increases the population of the native β-turn and of and the analogue half-life in serum. […] For these reasons, in all the CST analogues, L-Trp was replaced by D-Trp in position 7 and Ser11 was replaced by Thr11 to stabilise the β-turn; and either Phe6 or Phe5 were replaced by Msa (analogues 2 and 4; Fig. 1c). In addition to these modifications, terminal residues were acylated as N-octanoyl amides (analogues 3 and 5). The reasoning behind this modification was to increase the hydrophobicity of the analogue and mimic a similar modification to that observed in ghrelin, a neuropeptide produced by endocrine cells in the digestive tract and that shares with CST the ability to interact with the growth hormone secretagogue receptor GHSR-1a[28].
We also characterised the conformational properties of analogues 2, 3 and 4. […] In these cases (Fig. 8a–c), the aromatic residues 5 and 10 align on one side of the molecule, whereas the side chain of residue 6 is located on the other side of the peptide plane. In this conformation, D-Trp7 is close to the pair of aromatic rings 5 and 10, due to the presence of weak NOEs involving the ring protons of D-Trp7 and the methyl protons of Msa5. […]

SSTR1 = biological target: T2, SSTR1 (Homo sapiens, UniProt P30872); assay: Radio-ligand binding assay, SSTR1
T2 construct: host or cells: CHO-K1
Experimental: as §1, §2, §3, §4, §5

SSTR3 = biological target: T3, SSTR3 (Homo sapiens, UniProt P32745); assay: Radio-ligand binding assay, SSTR3
T3 construct: host or cells: CHO-K1
Experimental: as §1, §2, §3, §4, §5

[2] = biological target: Somatostatin receptor 3 (SSTR3) (human), P32745; settings: L-mesityl alanine (Msa) in place of Phe5; D-Trp at position 7; disulfide bridge between the two cysteines
[3] = biological target: Somatostatin receptor 1 (SSTR1) (human), P30872; settings: L-mesityl alanine (Msa) in place of Phe5; D-Trp at position 7; disulfide bridge between the two cysteines
[4] = biological target: Somatostatin receptor 5 (SSTR5) (human), P35346; settings: L-mesityl alanine (Msa) in place of Phe5; D-Trp at position 7; disulfide bridge between the two cysteines
[5] = biological target: Somatostatin receptor 2 (SSTR2) (human), P30874; settings: L-mesityl alanine (Msa) in place of Phe5; D-Trp at position 7; disulfide bridge between the two cysteines
[6] = biological target: Somatostatin receptor 1 (SSTR1) (human), P30872; assay: competition with 125I-Tyr11 SST14; settings: D-Trp at position 7, disulfide bridge between the two cysteines
[7] = biological target: Somatostatin receptor 2 (SSTR2) (human), P30874; assay: competition with 125I-Tyr11 SST14; settings: D-Trp at position 7, disulfide bridge between the two cysteines
[8] = biological target: Somatostatin receptor 3 (SSTR3) (human), P32745; assay: competition with 125I-Tyr11 SST14
[9] = biological target: Somatostatin receptor 5 (SSTR5) (human), P35346; assay: competition with 125I-Tyr11 SST14; settings: D-Trp at position 7, disulfide bridge between the two cysteines
[10] = biological target: Somatostatin receptor 3 (SSTR3) (human), P32745; settings: octanoyl moiety at the N-terminus (N-octanoyl amide); L-mesityl alanine (Msa) at position 5; D-Trp at position 7; disulfide bridge between the two cysteines
[11] = biological target: Somatostatin receptor 1 (SSTR1) (human), P30872; settings: octanoyl moiety at the N-terminus (N-octanoyl amide); L-mesityl alanine (Msa) at position 5; D-Trp at position 7; disulfide bridge between the two cysteines
[12] = biological target: Somatostatin receptor 5 (SSTR5) (human), P35346; settings: octanoyl moiety at the N-terminus (N-octanoyl amide); L-mesityl alanine (Msa) at position 5; D-Trp at position 7; disulfide bridge between the two cysteines
[13] = biological target: Somatostatin receptor 2 (SSTR2) (human), P30874; settings: octanoyl moiety at the N-terminus (N-octanoyl amide); L-mesityl alanine (Msa) at position 5; D-Trp at position 7; disulfide bridge between the two cysteines
[14] = biological target: Somatostatin receptor 1 (SSTR1) (human), P30872; settings: chains peptide; internal disulfide bond between the two cysteines (cyclic peptide)
[15] = biological target: Somatostatin receptor 5 (SSTR5) (human), P35346; settings: chains peptide; internal disulfide bond between the two cysteines (cyclic peptide)
[16] = biological target: Somatostatin receptor 4 (SSTR4) (human), P31391; settings: chains peptide; internal disulfide bond between the two cysteines (cyclic peptide)
[17] = biological target: Somatostatin receptor 2 (SSTR2) (human), P30874; settings: chains peptide; internal disulfide bond between the two cysteines (cyclic peptide)
[18] = biological target: Somatostatin receptor 3 (SSTR3) (human), P32745; settings: L-mesityl alanine (2,4,6-trimethylphenylalanine, Msa) in place of Phe6; D-Trp at position 7; disulfide bridge between the two cysteines
[19] = biological target: Somatostatin receptor 1 (SSTR1) (human), P30872; settings: L-mesityl alanine (2,4,6-trimethylphenylalanine, Msa) in place of Phe6; D-Trp at position 7; disulfide bridge between the two cysteines
[20] = biological target: Somatostatin receptor 5 (SSTR5) (human), P35346; settings: L-mesityl alanine (2,4,6-trimethylphenylalanine, Msa) in place of Phe6; D-Trp at position 7; disulfide bridge between the two cysteines
[21] = biological target: Somatostatin receptor 2 (SSTR2) (human), P30874; settings: L-mesityl alanine (2,4,6-trimethylphenylalanine, Msa) in place of Phe6; D-Trp at position 7; disulfide bridge between the two cysteines
[22] = biological target: Somatostatin receptor 3 (SSTR3) (human), P32745; settings: N-octanoyl amide on the N-terminal residue; L-mesityl alanine (Msa) at position 6; D-Trp at position 7; disulfide bridge between the two cysteines
[23] = biological target: Somatostatin receptor 1 (SSTR1) (human), P30872; settings: N-octanoyl amide on the N-terminal residue; L-mesityl alanine (Msa) at position 6; D-Trp at position 7; disulfide bridge between the two cysteines
[24] = biological target: Somatostatin receptor 5 (SSTR5) (human), P35346; settings: N-octanoyl amide on the N-terminal residue; L-mesityl alanine (Msa) at position 6; D-Trp at position 7; disulfide bridge between the two cysteines
[25] = biological target: Somatostatin receptor 2 (SSTR2) (human), P30874; settings: N-octanoyl amide on the N-terminal residue; L-mesityl alanine (Msa) at position 6; D-Trp at position 7; disulfide bridge between the two cysteines
[26] = L-mesityl alanine (Msa) in place of Phe5
[27] = octanoyl moiety at the N-terminus (N-octanoyl amide), L-mesityl alanine (Msa) at position 5
[28] = L-mesityl alanine (2,4,6-trimethylphenylalanine, Msa) in place of Phe6
[29] = N-octanoyl amide on the N-terminal residue, L-mesityl alanine (Msa) at position 6

Chain of Somatostatin receptor 1 (SSTR1) (human), P30872 (P30872 whole entry): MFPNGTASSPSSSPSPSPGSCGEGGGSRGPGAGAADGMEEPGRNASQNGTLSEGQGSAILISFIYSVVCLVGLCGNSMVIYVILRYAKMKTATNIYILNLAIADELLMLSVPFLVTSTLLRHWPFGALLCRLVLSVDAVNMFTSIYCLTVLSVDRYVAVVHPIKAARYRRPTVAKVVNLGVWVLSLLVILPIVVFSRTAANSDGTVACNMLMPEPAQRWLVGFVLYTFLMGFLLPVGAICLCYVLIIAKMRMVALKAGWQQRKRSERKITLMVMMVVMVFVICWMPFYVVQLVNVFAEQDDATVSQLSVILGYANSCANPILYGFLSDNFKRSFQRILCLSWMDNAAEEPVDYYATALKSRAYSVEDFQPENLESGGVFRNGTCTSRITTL
Chain of Somatostatin receptor 5 (SSTR5) (human), P35346 (P35346 whole entry): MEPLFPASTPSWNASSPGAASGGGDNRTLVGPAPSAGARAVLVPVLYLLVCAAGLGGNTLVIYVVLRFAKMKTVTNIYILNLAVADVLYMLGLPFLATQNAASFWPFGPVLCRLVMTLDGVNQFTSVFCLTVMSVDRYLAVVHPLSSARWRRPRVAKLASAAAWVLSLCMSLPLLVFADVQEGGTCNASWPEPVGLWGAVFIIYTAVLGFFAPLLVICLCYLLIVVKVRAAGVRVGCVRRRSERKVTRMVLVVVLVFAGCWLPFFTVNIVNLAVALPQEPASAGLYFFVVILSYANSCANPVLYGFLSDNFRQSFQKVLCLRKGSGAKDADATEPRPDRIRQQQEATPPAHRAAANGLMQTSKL
Chain of Somatostatin receptor 2 (SSTR2) (human), P30874 (P30874 whole entry): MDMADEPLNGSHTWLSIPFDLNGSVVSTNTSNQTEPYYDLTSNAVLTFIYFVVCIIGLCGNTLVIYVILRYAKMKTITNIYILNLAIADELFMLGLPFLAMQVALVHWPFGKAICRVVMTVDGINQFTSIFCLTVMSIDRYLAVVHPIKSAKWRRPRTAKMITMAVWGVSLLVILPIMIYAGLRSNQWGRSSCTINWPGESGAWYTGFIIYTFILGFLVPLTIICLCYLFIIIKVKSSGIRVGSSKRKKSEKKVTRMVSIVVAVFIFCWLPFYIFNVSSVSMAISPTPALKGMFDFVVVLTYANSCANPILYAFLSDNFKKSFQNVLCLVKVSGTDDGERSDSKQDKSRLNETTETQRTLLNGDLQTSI
Chain of Somatostatin receptor 3 (SSTR3) (human), P32745 (P32745 whole entry): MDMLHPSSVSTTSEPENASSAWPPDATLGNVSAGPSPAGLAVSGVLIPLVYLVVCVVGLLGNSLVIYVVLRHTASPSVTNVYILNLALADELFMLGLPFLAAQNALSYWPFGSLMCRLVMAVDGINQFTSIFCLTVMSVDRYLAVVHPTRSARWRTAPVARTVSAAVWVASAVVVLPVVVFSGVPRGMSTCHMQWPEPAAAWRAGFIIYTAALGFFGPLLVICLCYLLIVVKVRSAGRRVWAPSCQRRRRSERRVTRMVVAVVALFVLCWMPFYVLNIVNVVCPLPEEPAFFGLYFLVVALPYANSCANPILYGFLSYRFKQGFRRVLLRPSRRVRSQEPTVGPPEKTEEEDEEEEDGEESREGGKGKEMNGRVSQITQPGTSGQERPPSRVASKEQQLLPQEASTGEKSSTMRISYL
T1 sequence (P30874 whole entry): as the sequence (P30874 whole entry) above
T2 sequence (P30872 whole entry): as the sequence (P30872 whole entry) above
Chain of Somatostatin receptor 4 (SSTR4) (human), P31391 (P31391 whole entry): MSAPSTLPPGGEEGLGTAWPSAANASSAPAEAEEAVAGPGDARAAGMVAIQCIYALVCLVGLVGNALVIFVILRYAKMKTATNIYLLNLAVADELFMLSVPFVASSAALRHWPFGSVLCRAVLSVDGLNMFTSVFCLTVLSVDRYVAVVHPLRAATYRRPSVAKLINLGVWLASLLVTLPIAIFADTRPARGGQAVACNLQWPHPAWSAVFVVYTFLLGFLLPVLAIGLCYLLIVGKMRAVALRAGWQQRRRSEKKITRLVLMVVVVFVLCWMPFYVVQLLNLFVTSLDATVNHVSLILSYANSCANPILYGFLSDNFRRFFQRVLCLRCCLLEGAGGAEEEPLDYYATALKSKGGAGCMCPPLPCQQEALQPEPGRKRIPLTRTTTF
T3 sequence (P32745 whole entry): as the sequence (P32745 whole entry) above

For PCKNFFWKTFSSCK, the cleaved bond was “Cys13-L-Lys14, major”.

For `CCCCCCCC(=O)N1CCC[C@H]1C(=O)N[C@H]1CSSC[C@@H](C(=O)N[C@@H](CCCCN)C(=O)O)NC(=O)[C@H](CO)NC(=O)[C@H]([C@@H](C)O)NC(=O)[C@H](Cc2ccccc2)NC(=O)[C@H]([C@@H](C)O)NC(=O)[C@H](CCCCN)NC(=O)[C@@H](Cc2c[nH]c3ccccc23)NC(=O)[C@H](Cc2c(C)cc(C)cc2C)NC(=O)[C@H](Cc2ccccc2)NC(=O)[C@H](CC(N)=O)NC(=O)[C@H](CCCCN)NC1=O` [A3], the IC50 (SSTR2) was 2.8 nM.

For `CCCCCCCC(=O)N1CCC[C@H]1C(=O)N[C@H]1CSSC[C@@H](C(=O)O)NC(=O)[C@H](CO)NC(=O)[C@H]([C@@H](C)O)NC(=O)[C@H](Cc2ccccc2)NC(=O)[C@H]([C@@H](C)O)NC(=O)[C@H](CCCCN)NC(=O)[C@@H](Cc2c[nH]c3ccccc23)NC(=O)[C@H](Cc2ccccc2)NC(=O)[C@H](Cc2c(C)cc(C)cc2C)NC(=O)[C@H](CC(N)=O)NC(=O)[C@H](CCCCN)NC1=O` [analogue 6], the aqueous solubility [1] was “reduced its aqueous solubility; also recorded: significant impact on the solubility of the sample”.

With `Cc1cc(C)c(C[C@@H]2NC(=O)[C@H](Cc3ccccc3)NC(=O)[C@H](CC(N)=O)NC(=O)[C@H](CCCCN)NC(=O)[C@@H](NC(=O)[C@@H]3CCCN3)CSSC[C@@H](C(=O)N[C@@H](CCCCN)C(=O)O)NC(=O)[C@H](CO)NC(=O)[C@H]([C@@H](C)O)NC(=O)[C@H](Cc3ccccc3)NC(=O)[C@H]([C@@H](C)O)NC(=O)[C@H](CCCCN)NC(=O)[C@@H](Cc3c[nH]c4ccccc34)NC2=O)c(C)c1` [A2] the IC50 (SSTR1) was 14.1 nM, the IC50 (SSTR2) was 0.42 nM and the IC50 (SSTR3) was 16 nM.

B1: Cortistatin analogue 4 (peptide)
chain: PCKNFFWKTFTSCK
B1 showed an IC50 [2] of 1.8 nM, an IC50 [3] of 14.7 nM and an IC50 [4] of 4 nM. For the same molecule, the IC50 [5] was 9.8 nM, the IC50 [6, 26] was 14.7 nM and the IC50 [7, 26] was 9.8 nM. It also gave an IC50 ([8]; L-mesityl alanine (Msa) in place of Phe5, D-Trp at position 7, disulfide bridge between the two cysteines) of 1.8 nM and an IC50 [9, 26] of 4 nM.

B2: Cortistatin analogue 5 (peptide)
chain: PCKNFFWKTFTSCK
B2 gave an IC50 [10] of 5.1 nM, an IC50 [11] of 47.3 nM and an IC50 [12] of 1.12 nM. For the same molecule, the IC50 [13] was 35 nM, the IC50 [6, 27] was 47.3 nM and the IC50 [7, 27] was 35 nM. For the same molecule, the IC50 ([8]; octanoyl moiety at the N-terminus (N-octanoyl amide), L-mesityl alanine (Msa) at position 5, D-Trp at position 7, disulfide bridge between the two cysteines) was 5.1 nM and the IC50 [9, 27] was 1.12 nM.

B3: Cortistatin-14 (r,mCST-14), Q62949 99-112 (peptide)
chain: PCKNFFWKTFSSCK
modifications: disulfide 2-13 (inferred)
Molecule B3 has an IC50 [14] of 1.7 nM, an IC50 [15] of 0.3 nM and an IC50 [16] of 0.2 nM. It also gave an IC50 [17] of 0.09 nM and an IC50 ([8]; chains peptide, internal disulfide bond between the two cysteines (cyclic peptide)) of 0.3 nM.

B4: Cortistatin analogue 2 (peptide)
chain: PCKNFFWKTFTSCK
Molecule B4 has an IC50 [18] of 16 nM, an IC50 [19] of 14.1 nM and an IC50 [20] of 33 nM. For the same molecule, the IC50 [21] was 0.42 nM, the IC50 [6, 28] was 14.1 nM and the IC50 [7, 28] was 0.42 nM. It also gave an IC50 ([8]; L-mesityl alanine (2,4,6-trimethylphenylalanine, Msa) in place of Phe6, D-Trp at position 7, disulfide bridge between the two cysteines) of 16 nM and an IC50 [9, 28] of 33 nM.

B5: Cortistatin analogue 3 (peptide)
chain: PCKNFFWKTFTSCK
Work on B5 yielded an IC50 [22] of 100 nM, an IC50 [23] of over 300 nM and an IC50 [24] of over 300 nM. For the same molecule, the IC50 [25] was 2.8 nM, the IC50 [6, 29] was over 300 nM and the IC50 [7, 29] was 2.8 nM. The IC50 ([8]; N-octanoyl amide on the N-terminal residue, L-mesityl alanine (Msa) at position 6, D-Trp at position 7, disulfide bridge between the two cysteines) was 100 nM and the IC50 [9, 29] was over 300 nM.
